# Assay results taken from paper PMC4446433, “Crystal structure of the Bloom's syndrome helicase indicates a role for the HRDC domain in conformational changes” (Nucleic Acids Research, 2015).
# B1: BLM^1206–1298, encoding the HRDC domain (domain or fragment, human, UniProt P54132 1206-1298, looked up)
# chain: AKVSQREEMVKKCLGELTEVCKSLGKVFGVHYFNIFNTVTLKKLAESLSSDPEVLLQIDGVTEDKLEKYGAEVISVLQKYSEWTSPAEDSSPG
# modifications: biotin (on the C-terminal biotin acceptor sequence)
# notes: The His10 tag is TEV-cleavable, but no cleavage is described; also called isolated HRDC domain; biotinylated HRDC domain; source: E. coli in TB medium with biotin, purified (Ni-IDA, S75 Superdex)
# Target: T1, BLM^636–1072, including the RecA domains (human, UniProt P54132 636-1072)
# T1 construct: also called RecA core; D1/D2 domains
# Assay: BLI; biotinylated HRDC domain immobilised on streptavidin biosensors, RecA domains in solution, in the presence of ADP or ATP; 20-mM HEPES pH 7.5, 200-mM NaCl, 5% glycerol; 60-s windows; Octet RED384; apparent
# Settings: both partners purified
# T1 sequence (P54132 636-1072): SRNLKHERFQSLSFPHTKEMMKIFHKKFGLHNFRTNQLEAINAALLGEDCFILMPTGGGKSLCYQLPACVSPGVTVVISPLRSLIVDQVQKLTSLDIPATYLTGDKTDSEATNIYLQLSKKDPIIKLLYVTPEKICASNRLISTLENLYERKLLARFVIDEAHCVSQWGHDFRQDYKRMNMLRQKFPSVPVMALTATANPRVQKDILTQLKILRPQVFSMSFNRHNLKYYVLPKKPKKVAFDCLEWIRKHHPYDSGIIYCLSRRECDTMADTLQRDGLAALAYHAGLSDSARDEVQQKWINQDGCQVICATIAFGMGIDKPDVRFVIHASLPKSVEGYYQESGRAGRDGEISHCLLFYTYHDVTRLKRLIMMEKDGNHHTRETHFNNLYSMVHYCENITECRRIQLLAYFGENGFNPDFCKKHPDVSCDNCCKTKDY
binder,measurement,value
B1,Kd,30 to 100 µM
